Test results reported in patent publication US20180214548A1 (SHANGHAI YUNYI HEALTHCARE AND TECHNOLOGY, published 2018).
Values belong to the binder of their own block, whether it stands above or below them.

Legend:
[1] = target: T1, cyno PD-1^ECD-hFc protein (cyno monkey, UniProt B0LAJ3 25-167); assay: ELISA, coated cyno PD-1ECD-hFc; antibody 1 nM
T1 construct: Prepared by the method for Immunogen A; also called Cyno Monkey PD-1^ECD-hFc; cyno monkey PD-1-hFc; not shown: human IgG Fc fragment (hFc) and its junction to the ECD
T1 sequence (B0LAJ3 entry or part of it limits assumed): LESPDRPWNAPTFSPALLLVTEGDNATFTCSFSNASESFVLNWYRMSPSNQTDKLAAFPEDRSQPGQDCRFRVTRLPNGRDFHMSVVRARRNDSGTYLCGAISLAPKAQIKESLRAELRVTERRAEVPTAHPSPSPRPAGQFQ
Method: (§1) 100 uL of the diluted recombinant proteins were added to each well of 96-well plate. The plates were sealed with plastic film and incubated at 4° C. overnight. The plates were washed twice with wash buffer (PBS+0.01% (v/v) Tween20), and incubated with blocking buffer (PBS+0.01% (v/v) Tween20+1% (w/w) BSA) at room temperature for 2 hours. The blocking buffer was aspirated away, and 100 uL of purified anti-PD-1 antibodies were added to each well and incubated for 2 hours at 37° C. The plates were washed three times with wash buffer (PBS+0.01% (v/v) Tween20). HRP-conjugated secondary antibody (Sigma) was added to each well and incubated for 2 hours at 37° C. After the plates were washed three times with wash buffer, 100 uL TMB substrate was added to each well and incubated for 30 minutes at room temperature. 100 uL stop solution (0.1N HCl) was added to each well to stop the reaction. The absorbance at 450 nm was measured with an ELISA plate reader (384plus SpectraMax, Molecular Devices).

B7-1 = target: T2, B7-1 (human, UniProt P33681 35-242); assay: ELISA on coated protein (Table 9)
T2 sequence (looked up): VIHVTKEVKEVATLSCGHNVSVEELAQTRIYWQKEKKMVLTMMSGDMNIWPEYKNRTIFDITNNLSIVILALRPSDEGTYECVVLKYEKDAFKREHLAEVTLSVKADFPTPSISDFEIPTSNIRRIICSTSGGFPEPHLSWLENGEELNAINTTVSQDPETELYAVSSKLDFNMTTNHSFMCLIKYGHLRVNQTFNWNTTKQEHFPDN
Method: as §1

CTLA4 [2] = target: T3, CTLA4 (human, UniProt P16410 37-162, limits assumed); assay: ELISA on coated protein (Table 9)
T3 sequence (looked up): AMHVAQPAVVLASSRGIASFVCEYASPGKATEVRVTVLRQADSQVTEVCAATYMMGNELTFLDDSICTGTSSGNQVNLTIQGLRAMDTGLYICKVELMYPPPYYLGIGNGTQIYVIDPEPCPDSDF
Method: as §1

CD28 [3] = target: T4, CD28 (human, UniProt P10747 19-152); assay: ELISA on coated protein (Table 9)
Method: as §1
T4 sequence (P10747 19-152 limits assumed): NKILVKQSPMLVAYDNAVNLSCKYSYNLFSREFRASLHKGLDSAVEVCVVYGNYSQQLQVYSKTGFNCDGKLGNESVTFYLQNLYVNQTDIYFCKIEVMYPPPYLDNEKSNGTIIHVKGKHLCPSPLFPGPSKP

ICOS [4] = target: T5, ICOS (human, UniProt Q9Y6W8 21-140, limits assumed); assay: ELISA on coated protein (Table 9)
T5 sequence (looked up): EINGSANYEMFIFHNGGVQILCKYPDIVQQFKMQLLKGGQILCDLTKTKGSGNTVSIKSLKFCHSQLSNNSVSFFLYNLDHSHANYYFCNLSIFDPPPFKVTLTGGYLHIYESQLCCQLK
Method: as §1

[5] = target: T1, cyno PD-1^ECD-hFc protein; assay: ELISA, coated cyno PD-1ECD-hFc; antibody 100 nM
Method: as §1

[6] = target: T1, cyno PD-1^ECD-hFc protein; assay: ELISA, coated cyno PD-1ECD-hFc; antibody 0.1 nM
Method: as §1

[7] = target: T1, cyno PD-1^ECD-hFc protein; assay: ELISA, coated cyno PD-1ECD-hFc; antibody 0.01 nM
Method: as §1

CTLA4 [8] = target: T3, CTLA4; assay: ELISA, coated protein 1 ug/mL; antibody concentration not stated
Method: as §1

CD28 [9] = target: T4, CD28; assay: as above
Method: as §1

ICOS [10] = target: T5, ICOS; assay: as above
Method: as §1

[11] = target: T1, cyno PD-1^ECD-hFc protein; assay: ELISA, coated cyno PD-1ECD-hFc; antibody 10 nM
Method: as §1

CTLA4 [12] = target: T6, CTLA4 (human, UniProt P16410 37-162, limits assumed); assay: ELISA, coated protein, antibody concentration not given
T6 sequence (looked up): T3 sequence (looked up)

CD28 [13] = target: CD28 (human, UniProt P10747 19-152); assay: as above
Target sequence in this assay (P10747 19-152 limits assumed): as the sequence (P10747 19-152 limits assumed) above

B7.1 = target: T7, B7.1 (human, UniProt P33681 35-242); assay: as above
T7 sequence (looked up): T2 sequence (looked up)

ICOS [14] = target: T8, ICOS (human, UniProt Q9Y6W8 21-140, limits assumed); assay: as above
T8 sequence (looked up): T5 sequence (looked up)

[15] = target: T9, cyno monkey PD-1^ECD-hFc protein (cyno monkey, UniProt B0LAJ3 25-167); assay: ELISA, coated cyno PD-1ECD-hFc
T9 construct: also called cyno PD-1^ECD-hFc; not shown: human IgG Fc fragment (hFc) and its junction to the ECD
T9 sequence (B0LAJ3 entry or part of it limits assumed): as the sequence (B0LAJ3 entry or part of it limits assumed) above

[16] = target: T10, human PD-1^ECD-hFc protein (Immunogen A) (human, UniProt Q15116 25-167); assay: ELISA, coated human PD-1ECD-hFc; antibody 0.1 nM
T10 construct: Biotinylated for the Octet assay; also called PD-1-hFc; hPD-1^ECD-hFc; not shown: human IgG Fc fragment (hFc)
T10 sequence (Q15116 25-167): as the sequence (B0LAJ3 entry or part of it limits assumed) above, with E2D, A10P, L19V, A35T, R75Q counted along it
Method: as §1

[17] = target: T11, full length human PD-1 on cells (human, UniProt Q15116 25-288); assay: flow cytometry, CHO-K1-hPD-1 cells; antibody 1 nM
T11 construct: Also used here for PD-1 on human T cells/PBMC; also called CHO-K1-hPD-1; hPD-1
T11 sequence (Q15116 25-288 limits assumed): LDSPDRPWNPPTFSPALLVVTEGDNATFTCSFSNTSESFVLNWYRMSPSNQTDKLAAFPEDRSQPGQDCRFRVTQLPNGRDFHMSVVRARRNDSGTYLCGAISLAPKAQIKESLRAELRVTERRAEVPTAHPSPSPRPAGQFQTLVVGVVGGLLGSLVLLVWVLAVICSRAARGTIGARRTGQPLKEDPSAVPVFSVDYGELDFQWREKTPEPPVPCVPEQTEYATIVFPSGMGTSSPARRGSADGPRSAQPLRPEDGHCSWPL
Source text: (§2) CHO-K1 cells were stably transfected with pIRES plasmid containing the nucleic acid sequence encoding full length human PD-1 (see Example 2, step 2) to generate CHO-K1 cells stably expressing human PD-1 (herein referred to as CHO-K1-hPD-1 cells). Other CHO-K1 were stably transfected with pIRES plasmid containing the nucleic acid sequence encoding full length cyno PD-1 to generate CHO-K1 cells stably expressing cyno PD-1 (herein referred to as CHO-K1-cPD-1 cells). CHO-K1-hPD-1 and CHO-K1-cPD-1 cells were cultured and expanded in T-75 culture flasks to 90% confluence. The culture media was aspirated, and the cells were washed twice with HBSS (Hanks Balanced Salt Solution, Invitrogen). The cells were treated with enzyme-free cell dissociation solution (Versene solution, Invitrogen) and collected. The cells were then washed twice with HBSS, cell counts were determined, and cells were resuspended with HBSS at 2×10⁶ cells/mL. Goat serum was added to the cell suspension to a final concentration of 1%, and the cells were blocked for 30 minutes on ice and then washed twice with HBSS. The cells were collected after centrifugation and resuspended in FACS buffer (HBSS+1% BSA, v/v) at 2×10⁶ cells/mL. 100 uL of the cell suspension were then added to each well of 96-well plate. 100 uL of purified anti-PD-1 antibodies from Example 2 were added to each well of the 96-well plate and incubated for 2 hours on ice. […] The samples were washed three times with FACS buffer, and 100 uL fixation buffer (4% paraformaldehyde v/v) were added to each well and incubated for 10 minutes. The cells were then washed twice with FACS buffer and resuspended in 100 uL FACS buffer. The mean fluorescence intensity (MFI) was determined using FACS Calibur (BD), and the results are shown in FIGS. 7-8 and in Tables 10-11.

[18] = target: T11, full length human PD-1 on cells; assay: flow cytometry, CHO-K1-hPD-1 cells; antibody 31.6 nM
Source text: as §2

[19] = target: T10, human PD-1^ECD-hFc protein (Immunogen A); assay: ELISA, coated human PD-1ECD-hFc; antibody 100 nM
Method: as §1

[20] = target: T10, human PD-1^ECD-hFc protein (Immunogen A); assay: ELISA, coated human PD-1ECD-hFc; antibody 0.0001 nM
Method: as §1

[21] = target: T10, human PD-1^ECD-hFc protein (Immunogen A); assay: ELISA, coated human PD-1ECD-hFc; antibody 0.01 nM
Method: as §1

[22] = target: T10, human PD-1^ECD-hFc protein (Immunogen A); assay: ELISA, coated human PD-1ECD-hFc; antibody 0.001 nM
Method: as §1

[23] = target: T11, full length human PD-1 on cells; assay: flow cytometry, CHO-K1-hPD-1 cells; antibody 0.0316 nM
Source text: as §2

[24] = target: T10, human PD-1^ECD-hFc protein (Immunogen A); assay: ELISA, coated human PD-1ECD-hFc; antibody 1 nM
Method: as §1

[25] = target: T10, human PD-1^ECD-hFc protein (Immunogen A); assay: ELISA, coated human PD-1ECD-hFc; antibody 10 nM
Method: as §1

[26] = target: T11, full length human PD-1 on cells; assay: flow cytometry, CHO-K1-hPD-1 cells; antibody 3.16 nM
Source text: as §2

[27] = target: T11, full length human PD-1 on cells; assay: flow cytometry, CHO-K1-hPD-1 cells; antibody 0.1 nM
Source text: as §2

[28] = target: T11, full length human PD-1 on cells; assay: flow cytometry, CHO-K1-hPD-1 cells; antibody 100 nM
Source text: as §2

[29] = target: T11, full length human PD-1 on cells; assay: flow cytometry, CHO-K1-hPD-1 cells; antibody 10 nM
Source text: as §2

[30] = target: T10, human PD-1^ECD-hFc protein (Immunogen A); assay: ELISA, coated human PD-1ECD-hFc; antibody 0.00001 nM
Method: as §1

[31] = target: T11, full length human PD-1 on cells; assay: flow cytometry, CHO-K1-hPD-1 cells; antibody 0.316 nM
Source text: as §2

OD450 nm [1]: 2.61
binding result (B7-1): no binding
binding result (CTLA4 [2]): no binding
binding result (CD28 [3]): no binding
binding result (ICOS [4]): no binding
OD450 nm [5]: 2.7
OD450 nm [6]: 1.28
OD450 nm [7]: 0.342
OD450 nm (CTLA4 [8]): 0.106
OD450 nm (CD28 [9]): 0.166
OD450 nm (ICOS [10]): 0.14
OD450 nm [11]: 2.74
B1: chimeric anti-PD-1 antibody 223G6B5 (antibody, V domains shown)
VH: QVQLQESGPGLVKPSETLSLTCAVSGHSIRGSYFWGWIRQPPGRGLEWIGSIYHSGSTYTNPSLKSRATISVDTSKNQFSLKLNSVTAADTAVYYCARDLDIATTRDYWGQGTLVTVSS
VL: DIQLTQSPSFLSASVGDRVTIICRASQGINNYLAWYQQKPGKAPKLLIYAASTLQSGVPSRFSGSGSGTEFTLTISSLQPEDFATYYCQQLDSYPRTFGQGTKVEIKR
notes: Purified from hybridoma of Harbour H2L2 mice: human variable regions, rat constant regions

OD450 nm (CTLA4 [12]): 0.13 OD450
OD450 nm (CD28 [13]): 0.05 OD450
OD450 nm (B7.1): 0.25 OD450
OD450 nm (ICOS [14]): 0.12 OD450
OD450 nm at 0 nM [15]: 0.31 OD450
OD450 nm at 0.001 nM [15]: 0.33 OD450
OD450 nm at 0.01 nM [15]: 0.83 OD450
OD450 nm at 0.1 nM [15]: 2.5 OD450
OD450 nm at 1 nM [15]: 2.88 OD450
OD450 nm at 100 nM [15]: 2.85 OD450
B2: fully human anti-PD-1 antibody 223G6B5 (antibody, human IgG4, V domains shown)
VH: B1 VH
VL: B1 VL

OD450 nm [16]: 2.13
Mean fluorescence intensity [17]: 5
Mean fluorescence intensity [18]: 986
OD450 nm [19]: 2.77
OD450 nm [20]: 0.43
OD450 nm [21]: 0.68
OD450 nm [22]: 0.48
Mean fluorescence intensity [23]: 3
OD450 nm [24]: 2.87
OD450 nm [25]: 2.84
Mean fluorescence intensity [26]: 21.4
Mean fluorescence intensity [27]: 2.9
Mean fluorescence intensity [28]: 1490
Mean fluorescence intensity [29]: 160
OD450 nm [30]: 0.43
Mean fluorescence intensity [31]: 3
B3: chimeric anti-PD-1 antibody 204C5E12 (antibody, V domains shown)
VH: QVQLVESGGGVVQPGRSLRLSCAASGFSFSYYGMHWVRQAPGKGLEWVAVIWYDGSNKYYADSVKGRFTISRDNSKNTLYLQMNSLRAEDTAVYYCASGITLVRGADYYYNYDMDVWGQGTTVTVSS
VL: not shown
notes: as for B1

OD450 nm [16]: 2.54
Mean fluorescence intensity [17]: 5.2
Mean fluorescence intensity [18]: 826
OD450 nm [19]: 2.83
OD450 nm [20]: 0.4
OD450 nm [21]: 0.9
OD450 nm [22]: 0.45
Mean fluorescence intensity [23]: 4.1
OD450 nm [24]: 2.86
OD450 nm [25]: 2.86
Mean fluorescence intensity [26]: 22.9
Mean fluorescence intensity [27]: 3.2
Mean fluorescence intensity [28]: 825
Mean fluorescence intensity [29]: 203
OD450 nm [30]: 0.39
Mean fluorescence intensity [31]: 3.4
B4: chimeric anti-PD-1 antibody 226C3A7 (antibody, V domains shown)
VH: QVQLQQSGPGLVNPSQTLSLTCAISGDSVSSNSGAWNWIRQSPSRGLEWLGRTYYRSKWYNDYGISVQSRITINPDTSKNHFSLQLNSVTPEDTAVYYCARDPYYYGSGSYFDYWGQGTLVTVSS
VL: EIVMTQSPATLSVSPGERVTLSCRASLSVNSNLAWYQQKPGQAPRLLIYDTSTRATGVPARFSGSGSGTEFTLTISSLQSEDFAVYYCQQYHYWPLTFGGGTKVEIK
notes: as for B1
